Measurements published in patent US20020090680A1.

Target: IL-9R/h16445 cytoplasmic-domain receptor chimera (human)
Test: cell-based or functional assay

Chain of IL-9R/h16445 cytoplasmic-domain receptor chimera (human) (Q9HBE5 254-538, change not shown): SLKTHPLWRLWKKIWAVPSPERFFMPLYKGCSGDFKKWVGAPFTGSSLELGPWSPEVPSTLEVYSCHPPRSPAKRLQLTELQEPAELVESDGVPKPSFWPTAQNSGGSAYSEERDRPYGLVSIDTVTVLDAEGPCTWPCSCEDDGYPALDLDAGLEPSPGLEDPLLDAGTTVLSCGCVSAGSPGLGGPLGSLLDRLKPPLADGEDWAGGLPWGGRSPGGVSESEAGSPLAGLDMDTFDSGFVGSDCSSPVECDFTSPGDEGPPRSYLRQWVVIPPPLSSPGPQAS

- CAT expression (HRRE-CAT reporter, HepG2 cells): > 30 fold
Substance: IL-9 (ligand)
